Measurements as given in US20240059759A1.
Where two headings read alike, the source gives them in different places.

Assays:
[1] = target: SARS-CoV-2 Spike RBD-His Tag, Sino Biological (SARS-CoV-2)
[2] = target: SARS-CoV-2 Spike RBD-His Tag, Sino Biological (SARS-CoV-2); remark: listed apart in the source
CoV-2 (SARS-CoV-2) [3] = target: CoV-2 (SARS-CoV-2)
CoV-2 (SARS-CoV-2) [4] = target: CoV-2 (SARS-CoV-2); remark: listed apart in the source
CoV-2 (SARS-CoV-2) [5] = target: CoV-2 (SARS-CoV-2); remark: listed apart in the source
CoV-2 (SARS-CoV-2) [6] = target: CoV-2 (SARS-CoV-2); remark: listed apart in the source
[7] = target: SARS-CoV-2 Spike RBD-His Tag, Sino Biological (SARS-CoV-2); remark: listed apart in the source
[8] = target: SARS-CoV-2 Spike RBD-His Tag, Sino Biological (SARS-CoV-2); remark: listed apart in the source
[9] = target: SARS-CoV-2 Spike RBD-His Tag, Sino Biological (SARS-CoV-2); remark: listed apart in the source
[10] = target: SARS-CoV-2 Spike RBD-His Tag, Sino Biological (SARS-CoV-2); remark: listed apart in the source
[11] = target: SARS-CoV-2 Spike RBD-His Tag, Sino Biological (SARS-CoV-2); remark: listed apart in the source
[12] = target: SARS-CoV-2 Spike RBD-His Tag, Sino Biological (SARS-CoV-2); remark: listed apart in the source
[13] = target: SARS-CoV-2 Spike RBD-His Tag, Sino Biological (SARS-CoV-2); remark: listed apart in the source
[14] = target: SARS-CoV-2 Spike RBD-His Tag, Sino Biological (SARS-CoV-2); remark: listed apart in the source
[15] = target: SARS-CoV-2 Spike RBD-His Tag, Sino Biological (SARS-CoV-2); remark: listed apart in the source
[16] = target: SARS-CoV-2 Spike RBD-His Tag, Sino Biological (SARS-CoV-2); remark: listed apart in the source
CoV-2 (SARS-CoV-2) [17] = target: CoV-2 (SARS-CoV-2); remark: listed apart in the source

B1: vhh_tstrep_sars2_pjl1_L_85 (VHH)
VHH: QVQLQESGGGLVQAGGSLRLSCAASGRTFSEYAMGWFRQAPGKEREFVATISWSGGATYYTDSVKGRFTISRDNAKNTVYLQMNSLKPDDTAVYYCAAAGLETVVSEWDYDYDYWGQGTQVTVSS
B1 was tested, and the xmid (log10) [1] was -0.815 and the xmid (log10) [2] was -1.05.

B2: vhh_tstrep_sars2_pjl1_L_82 (VHH)
VHH: QVQLQESGGGLVQAGGSLRLSCAASGRTFSEYAMGWFRQAPGKEREFVATISWSGGATYYTDSVKGRFTISRDNAKNTVYLQMNSLKPDDTAVYYCAAAELGTVVSEWDYDYDYWGQGTQVTVSS
B2 was tested, and the xmid (log10) [1] was 0.109 and the xmid (log10) [2] was 0.155.

B3: vhh_tstrep_sars2_pjl1_L_81 (VHH)
VHH: QVQLQESGGGLVQAGGSLRLSCAASGRTFSEYAMGWFRQAPGKEREFVATISWSGGATYYTDSVKGRFTISRDNAKNTVYLQMNSLKPDDTAVYYCAAARLGTVVSEWDYDYDYWGQGTQVTVSS
B3 gave a xmid (log10) [1] of 1.06 and a xmid (log10) [2] of 0.479.

B4: vhh_tstrep_sars2_pjl1_L_22 (VHH)
VHH: QVQLQESGGGLVQAGGSLRLSCAASGRTFSEYAMGWFRQAPGKEREFVATISASGGSTYYTDSVKGRFTISRDNAKNTVYLQMNSLKPDDTAVYYCAAAGLGTVVSEWDYDYDYWGQGTQVTVSS
Binder B4 has a xmid (log10) (CoV-2 (SARS-CoV-2) [3]) of 0.892, a xmid (log10) (CoV-2 (SARS-CoV-2) [4]) of 0.688 and a xmid (log10) (CoV-2 (SARS-CoV-2) [5]) of 1.08.

B5: vhh_tstrep_sars2_pjl1_L_24 (VHH)
VHH: QVQLQESGGGLVQAGGSLRLSCAASGRTFSEYAMGWFRQAPGKEREFVATISWSGGSTAYTDSVKGRFTISRDNAKNTVYLQMNSLKPDDTAVYYCAAAGLGTVVSEWDYDYDYWGQGTQVTVSS
Work on B5 yielded a xmid (log10) (CoV-2 (SARS-CoV-2) [3]) of 0.908, a xmid (log10) (CoV-2 (SARS-CoV-2) [4]) of 0.582 and a xmid (log10) (CoV-2 (SARS-CoV-2) [6]) of 0.515.

B6: vhh_tstrep_sars2_pjl1_L_116 (VHH)
VHH: QVQLQESGGGLVQAGGSLRLSCAASGRTFSEYAMGWFRQAPGKEREFVASISWSGGATYHTDSVKGRFTISRDNAKNTVYLQMNSLKPDDTAVYYCAAAGLGTVVSEWDYDYDYWGQGTQVTVSS
With B6 the xmid (log10) [7] was 0.288 and the xmid (log10) [8] was -0.0157.

B7: vhh_tstrep_sars2_pjl1_L_32 (VHH)
VHH: QVQLQESGGGLVQAGGSLRLSCAASGRTFSEYAMGWFRQAPGKEREFVATISWSGGSTYYTDSVKGRFTISRDNAKNTVYLQMNSLKPDDTAVYYCAAAGLGTVVSAWDYDYDYWGQGTQVTVSS
Binder B7 has a xmid (log10) (CoV-2 (SARS-CoV-2) [3]) of 0.532, a xmid (log10) (CoV-2 (SARS-CoV-2) [4]) of -0.271 and a xmid (log10) (CoV-2 (SARS-CoV-2) [5]) of 0.239.

B8: vhh_tstrep_sars2_pjl1_L_120 (VHH)
VHH: QVQLQESGGGLVQAGGSLRLSCAASGRTFSEYAMGWFRQAPGKEREFVATISWSGGATYHTDSVDGRFTISRDNAKNTVYLQMNSLKPDDTAVYYCAAAGLGTVVSEWDYDYDYWGQGTQVTVSS
B8 showed a xmid (log10) [7] of -0.0348 and a xmid (log10) [8] of -0.493.

B9: vhh_tstrep_sars2_pjl1_L_118 (VHH)
VHH: QVQLQESGGGLVQAGGSLRLSCAASGRTFSEYAMGWFRQAPGKEREFVATISWSGGATGHTDSVKGRFTISRDNAKNTVYLQMNSLKPDDTAVYYCAAAGLGTVVSEWDYDYDYWGQGTQVTVSS
Work on B9 yielded a xmid (log10) [9] of 0.784 and a xmid (log10) [10] of 0.412.

B10: vhh_tstrep_sars2_pjl1_L_119 (VHH)
VHH: QVQLQESGGGLVQAGGSLRLSCAASGRTFSEYAMGWFRQAPGKEREFVATESWSGGATYHTDSVKGRFTISRDNAKNTVYLQMNSLKPDDTAVYYCAAAGLGTVVSEWDYDYDYWGQGTQVTVSS
With B10 the xmid (log10) [7] was 0.39 and the xmid (log10) [9] was 0.385.

B11: vhh_tstrep_sars2_pjl1_L_121 (VHH)
VHH: QVQLQESGGGLVQAGGSLRLSCAASGRTFSEYAMGWFRQAPGKEREFVATISWSGWATYHTDSVKGRFTISRDNAKNTVYLQMNSLKPDDTAVYYCAAAGLGTVVSEWDYDYDYWGQGTQVTVSS
Work on B11 yielded a xmid (log10) [9] of -0.224 and a xmid (log10) [10] of -0.645.

B12: vhh_tstrep_sars2_pjl1_L_129 (VHH)
VHH: QVQLQESGGGLVQAGGSLRLSCAASGRTFSEYAMGWFRQAPGKEREFVATISWSGGATYHTTSVKGRFTISRDNAKNTVYLQMNSLKPDDTAVYYCAAAGLGTVVSEWDYDYDYWGQGTQVTVSS
B12 gave a xmid (log10) [11] of -1.34 and a xmid (log10) [9] of -1.34.

B13: vhh_tstrep_sars2_pjl1_L_127 (VHH)
VHH: QVQLQESGGGLVQAGGSLRLSCAASGRTFSEYAMGWFRQAPGKEREFVATISWSGGAAYHTDSVKGRFTISRDNAKNTVYLQMNSLKPDDTAVYYCAAAGLGTVVSEWDYDYDYWGQGTQVTVSS
For B13, the xmid (log10) [9] was 0.479 and the xmid (log10) [10] was -0.006.

B14: vhh_tstrep_sars2_pjl1_L_117 (VHH)
VHH: QVQLQESGGGLVQAGGSLRLSCAASGRTFSEYAMGWFRQAPGKEREFVATISWSGGATYHTWSVKGRFTISRDNAKNTVYLQMNSLKPDDTAVYYCAAAGLGTVVSEWDYDYDYWGQGTQVTVSS
B14 was tested, and the xmid (log10) [9] was -1.7 and the xmid (log10) [12] was -1.5.

B15: vhh_tstrep_sars2_pjl1_L_123 (VHH)
VHH: QVQLQESGGGLVQAGGSLRLSCAASGRTFSEYAMGWFRQAPGKEREFVATISWIGGATYHTDSVKGRFTISRDNAKNTVYLQMNSLKPDDTAVYYCAAAGLGTVVSEWDYDYDYWGQGTQVTVSS
For B15, the xmid (log10) [13] was 0.157 and the xmid (log10) [14] was 0.9.

B16: vhh_tstrep_sars2_pjl1_L_126 (VHH)
VHH: QVQLQESGGGLVQAGGSLRLSCAASGRTFSEYAMGWFRQAPGKEREFVATISWSGGASYHTDSVKGRFTISRDNAKNTVYLQMNSLKPDDTAVYYCAAAGLGTVVSEWDYDYDYWGQGTQVTVSS
For B16, the xmid (log10) [10] was -0.398 and the xmid (log10) [14] was 0.489.

B17: vhh_tstrep_sars2_pjl1_L_130 (VHH)
VHH: QVQLQESGGGLVQAGGSLRLSCAASGRTFSEYAMGWFRQAPGKEREFVATISWSGGATYHTDSVKARFTISRDNAKNTVYLQMNSLKPDDTAVYYCAAAGLGTVVSEWDYDYDYWGQGTQVTVSS
Binder B17 has a xmid (log10) [11] of -0.532 and a xmid (log10) [14] of 0.204.

B18: vhh_tstrep_sars2_pjl1_L_128 (VHH)
VHH: QVQLQESGGGLVQAGGSLRLSCAASGRTFSEYAMGWFRQAPGKEREFVATISPSGGATYHTDSVKGRFTISRDNAKNTVYLQMNSLKPDDTAVYYCAAAGLGTVVSEWDYDYDYWGQGTQVTVSS
B18 showed a xmid (log10) [11] of -0.2 and a xmid (log10) [14] of 0.384.

B19: vhh_tstrep_sars2_pjl1_L_135 (VHH)
VHH: QVQLQESGGGLVQAGGSLRLSCAASGRTFSEYAMGWFRQAPGKEREFVATISWSGGATYHTDSVKGRFTISRDNAKNTVYLQMNSLKPDDTAVYYCAAAGLWTVVSEWDYDYDYWGQGTQVTVSS
For B19, the xmid (log10) [13] was -1.65 and the xmid (log10) [14] was -1.5.

B20: vhh_tstrep_sars2_pjl1_L_124 (VHH)
VHH: QVQLQESGGGLVQAGGSLRLSCAASGRTFSEYAMGWFRQAPGKEREFVATISWSGGGTYHTDSVKGRFTISRDNAKNTVYLQMNSLKPDDTAVYYCAAAGLGTVVSEWDYDYDYWGQGTQVTVSS
Work on B20 yielded a xmid (log10) [15] of -1.84 and a xmid (log10) [10] of -1.89.

B21: vhh_tstrep_sars2_pjl1_L_133 (VHH)
VHH: QVQLQESGGGLVQAGGSLRLSCAASGRTFSEYAMGWFRQAPGKEREFVATISWSGGATYHTDSVKGRFTISRDNAKNTVYLQMNSLKPDDTAVYYCAAAGLGTVVSEWDYDYDSWGQGTQVTVSS
With B21 the xmid (log10) [15] was -1.46 and the xmid (log10) [13] was -1.7.

B22: vhh_tstrep_sars2_pjl1_L_125 (VHH)
VHH: QVQLQESGGGLVQAGGSLRLSCAASGRTFSEYAMGWFRQAPGKEREFVATISWSGGATYHTDSVKGRFTISRDNAKNTVYLQMNSLKPDDTAVYYCAAAGLRTVVSEWDYDYDYWGQGTQVTVSS
B22 was tested, and the xmid (log10) [7] was 0.108 and the xmid (log10) [15] was 0.297.

B23: vhh_tstrep_sars2_pjl1_L_132 (VHH)
VHH: QVQLQESGGGLVQAGGSLRLSCAASGRTFSEYAMGWFRQAPGKEREFVATISWGGGATYHTDSVKGRFTISRDNAKNTVYLQMNSLKPDDTAVYYCAAAGLGTVVSEWDYDYDYWGQGTQVTVSS
With B23 the xmid (log10) [13] was -0.157 and the xmid (log10) [16] was 0.0703.

B24: vhh_tstrep_sars2_pjl1_L_137 (VHH)
VHH: QVQLQESGGGLVQAGGSLRLSCAASGRTFSEYAMGWFRQAPGKEREFVATISWSGGATYHTDSVKGRFTISRDNAKNTVYLQMNSLKPDDTAVYYCAAAGLGTVVSAWDYDYDYWGQGTQVTVSS
For B24, the xmid (log10) [13] was -1.3 and the xmid (log10) [16] was -0.676.

B25: vhh_tstrep_sars2_pjl1_L_38 (VHH)
VHH: QVQLQESGGGLVQAGGSLRLSCAASGRTFSEYAMGWFRQAPGKEREFVATISWSGGSTYYTDSVKGRFTISRDNAKNTVYLQMNSLKPDDTAVYYCAAAGLGTVVSEWAYDYDYWGQGTQVTVSS
B25 showed a xmid (log10) (CoV-2 (SARS-CoV-2) [17]) of -0.286, a xmid (log10) (CoV-2 (SARS-CoV-2) [3]) of 0.854 and a xmid (log10) (CoV-2 (SARS-CoV-2) [5]) of 0.0417.

B26: vhh_tstrep_sars2_pjl1_L_40 (VHH)
VHH: QVQLQESGGGLVQAGGSLRLSCAASGRTFSEYAMGWFRQAPGKEREFVATISWSGGSTYYTASVKGRFTISRDNAKNTVYLQMNSLKPDDTAVYYCAAAGLGTVVSEWDYDYDYWGQGTQVTVSS
Binder B26 has a xmid (log10) (CoV-2 (SARS-CoV-2) [17]) of -0.664 and a xmid (log10) (CoV-2 (SARS-CoV-2) [6]) of 0.226.

B27: vhh_tstrep_sars2_pjl1_L_46 (VHH)
VHH: QVQLQESGGGLVQAGGSLRLSCAASGRTFSEYAMGWFRQAPGKEREFVATISWSGGSTYYTDSVKGRFTISRDNAKNTVYLQMNSLKPDDTAVYYCAAAGLGTVVSEADYDYDYWGQGTQVTVSS
B27 showed a xmid (log10) (CoV-2 (SARS-CoV-2) [17]) of 1.65.
